The values below are quoted from earlier work in article PMC6414276.

For series [1], the target named is CBP TAZ1 (Mus musculus) (UniProt P45481).
Series [2] has the same target. The source holds these as a separate data set.
For series [3] the target is unchanged. The source holds these as a separate data set.

Where two headings read alike, the source gives them in different places.

Chain of UniProt P45481 (P45481 340-439): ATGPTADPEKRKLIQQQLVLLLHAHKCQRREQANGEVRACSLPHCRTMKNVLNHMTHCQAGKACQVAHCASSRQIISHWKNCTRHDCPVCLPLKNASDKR

Regarding HIF-1α 790-826 (from UniProt Q16665), in the series with CBP TAZ1 (Mus musculus) [1], the Kd was 0.047 µM.

For “HIF-1α LPQL-αB motif (from UniProt Q16665)”, the equilibrium dissociation constant (Kd) with CBP TAZ1 (Mus musculus) [2] was above 1000 µM.

Regarding HIF-1α αC motif (from UniProt Q16665), the Kd with CBP TAZ1 (Mus musculus) [3] is 200 µM.

As usually defined, the Kd is a measure of binding affinity in units of concentration.
